Measurements reported in patent US7838231 (REGENTS OF THE UNIVERSITY OF MICHIGAN, dated 2010).

Assays:
[1] = biological target: calmodulin (CALM2), human full length, yeast two-hybrid fusion (human, UniProt P0DP24 1-149); assay: yeast two-hybrid screen of a human fetal brain expression library, NPHP5 as bait
[2] = biological target: T1, NPHP4, human full length, yeast two-hybrid prey (human, UniProt O75161 1-1426); assay: direct yeast two-hybrid assay
T1 construct: also called nephroretinin; nephrocystin-4
T1 sequence: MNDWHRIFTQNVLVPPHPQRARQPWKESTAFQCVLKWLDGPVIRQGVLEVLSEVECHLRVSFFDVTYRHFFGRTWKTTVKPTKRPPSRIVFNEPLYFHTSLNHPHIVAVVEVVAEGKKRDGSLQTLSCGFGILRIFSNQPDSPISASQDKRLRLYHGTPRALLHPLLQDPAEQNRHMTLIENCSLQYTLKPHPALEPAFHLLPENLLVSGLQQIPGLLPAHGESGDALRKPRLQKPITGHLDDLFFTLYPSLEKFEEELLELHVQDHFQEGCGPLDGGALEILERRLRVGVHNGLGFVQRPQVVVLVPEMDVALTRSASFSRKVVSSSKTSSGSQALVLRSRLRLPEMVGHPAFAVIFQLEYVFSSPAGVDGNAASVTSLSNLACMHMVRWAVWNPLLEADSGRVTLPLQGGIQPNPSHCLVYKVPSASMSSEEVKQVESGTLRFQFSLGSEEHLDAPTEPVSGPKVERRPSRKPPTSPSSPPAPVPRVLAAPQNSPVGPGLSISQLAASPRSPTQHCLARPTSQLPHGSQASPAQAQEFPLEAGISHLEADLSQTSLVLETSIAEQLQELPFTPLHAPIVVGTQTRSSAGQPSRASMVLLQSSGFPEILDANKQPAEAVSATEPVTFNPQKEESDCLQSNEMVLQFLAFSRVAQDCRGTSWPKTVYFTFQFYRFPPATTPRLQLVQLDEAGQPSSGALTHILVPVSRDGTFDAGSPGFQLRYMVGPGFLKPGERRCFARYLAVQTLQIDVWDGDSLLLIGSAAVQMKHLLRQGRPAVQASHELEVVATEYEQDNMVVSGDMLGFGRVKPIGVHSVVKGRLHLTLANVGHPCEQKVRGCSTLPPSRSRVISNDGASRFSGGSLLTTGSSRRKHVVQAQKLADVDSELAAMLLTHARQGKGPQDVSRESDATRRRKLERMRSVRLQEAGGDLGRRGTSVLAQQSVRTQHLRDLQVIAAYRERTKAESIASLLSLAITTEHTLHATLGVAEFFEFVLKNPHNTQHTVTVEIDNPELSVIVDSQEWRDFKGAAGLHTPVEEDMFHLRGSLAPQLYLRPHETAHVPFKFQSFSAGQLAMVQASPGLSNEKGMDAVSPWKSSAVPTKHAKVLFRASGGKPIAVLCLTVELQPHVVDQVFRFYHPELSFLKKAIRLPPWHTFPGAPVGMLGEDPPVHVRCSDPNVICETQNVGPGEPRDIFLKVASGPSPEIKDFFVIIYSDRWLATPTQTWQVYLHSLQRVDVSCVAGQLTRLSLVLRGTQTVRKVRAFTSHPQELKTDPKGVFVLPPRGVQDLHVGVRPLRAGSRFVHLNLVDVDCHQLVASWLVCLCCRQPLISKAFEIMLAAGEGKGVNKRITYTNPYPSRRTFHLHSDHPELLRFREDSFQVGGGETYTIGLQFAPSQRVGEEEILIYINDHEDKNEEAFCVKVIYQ

[3] = biological target: T2, KIF3A, yeast two-hybrid construct (UniProt Q9Y496 1-699); assay: direct yeast two-hybrid assay
T2 construct: The construct is not described in the methods; not shown: GAL4 domain of the two-hybrid vector; not described for this construct

[4] = biological target: T3, NPHP1, human full length, yeast two-hybrid prey (human, UniProt O15259 1-732); assay: direct yeast two-hybrid assay
T3 construct: also called nephrocystin 1
T3 sequence (looked up): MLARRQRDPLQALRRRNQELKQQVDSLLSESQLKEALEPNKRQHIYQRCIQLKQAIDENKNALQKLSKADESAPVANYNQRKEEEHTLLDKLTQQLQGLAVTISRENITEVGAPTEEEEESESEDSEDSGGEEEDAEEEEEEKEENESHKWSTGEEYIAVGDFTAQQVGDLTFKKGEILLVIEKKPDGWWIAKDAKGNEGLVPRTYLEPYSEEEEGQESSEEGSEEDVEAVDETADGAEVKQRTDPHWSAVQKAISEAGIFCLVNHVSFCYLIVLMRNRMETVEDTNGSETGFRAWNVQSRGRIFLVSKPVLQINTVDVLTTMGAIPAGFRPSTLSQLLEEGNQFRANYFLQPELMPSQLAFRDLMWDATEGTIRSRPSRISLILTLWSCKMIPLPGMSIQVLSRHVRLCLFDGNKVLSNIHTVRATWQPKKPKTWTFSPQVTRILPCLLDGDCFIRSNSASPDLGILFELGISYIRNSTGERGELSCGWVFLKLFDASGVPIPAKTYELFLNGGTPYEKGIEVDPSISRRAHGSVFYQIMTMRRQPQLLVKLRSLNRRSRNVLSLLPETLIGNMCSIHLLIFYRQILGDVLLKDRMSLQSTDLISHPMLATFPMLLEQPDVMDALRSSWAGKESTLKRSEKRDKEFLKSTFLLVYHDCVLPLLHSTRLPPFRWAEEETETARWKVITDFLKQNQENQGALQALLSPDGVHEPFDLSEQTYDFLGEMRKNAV

T2 sequence (Q9Y496 whole entry, the tested form may be a part): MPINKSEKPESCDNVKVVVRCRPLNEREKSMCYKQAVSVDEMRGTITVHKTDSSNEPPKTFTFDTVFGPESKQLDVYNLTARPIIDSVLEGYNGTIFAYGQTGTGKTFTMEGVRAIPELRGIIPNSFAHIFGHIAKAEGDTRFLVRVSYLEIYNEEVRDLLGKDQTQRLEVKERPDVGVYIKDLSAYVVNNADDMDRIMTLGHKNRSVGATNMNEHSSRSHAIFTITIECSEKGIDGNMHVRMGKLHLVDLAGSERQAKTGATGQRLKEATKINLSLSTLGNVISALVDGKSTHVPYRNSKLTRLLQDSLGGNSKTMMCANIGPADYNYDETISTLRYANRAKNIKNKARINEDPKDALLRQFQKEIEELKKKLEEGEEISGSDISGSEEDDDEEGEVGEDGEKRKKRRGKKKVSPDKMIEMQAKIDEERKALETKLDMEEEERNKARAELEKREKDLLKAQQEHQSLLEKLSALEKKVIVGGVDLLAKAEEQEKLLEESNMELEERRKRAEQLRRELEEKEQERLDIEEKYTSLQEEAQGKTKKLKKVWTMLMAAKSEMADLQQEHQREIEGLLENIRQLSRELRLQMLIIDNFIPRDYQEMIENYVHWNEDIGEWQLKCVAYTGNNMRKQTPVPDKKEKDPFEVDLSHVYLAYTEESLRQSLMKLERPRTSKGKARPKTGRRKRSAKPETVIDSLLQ

B1: full-length human nephrocystin-5 (NPHP5), yeast two-hybrid fusion (other, not shown: small tags and cut ends)
chain: MKPTGTDPRILSIAAEVAKSPEQNVPVILLKLKEIINITPLGSSELKKIKQDIYCYDLIQYCLLVLSQDYSRIQGGWTTISQLTQILSHCCVGLEPGEDAEEFYNELLPSAAENFLVLGRQLQTCFINAAKAEEKDELLHFFQIVTDSLFWLLGGHVELIQNVLQSDHFLHLLQADNVQIGSAVMMMLQNILQINSGDLLRIGRKALYSILDEVIFKLFSTPSPVIRSTATKLLLLMAESHQEILILLRQSTCYKGLRRLLSKQETGTEFSQELRQLVGLLSPMVYQEVEEQKLHQAACLIQAYWKGFQTRKRLKKLPSAVIALQRSFRSKRSKMLLEINRQKEEEDLKLQLQLQRQRAMRLSRELQLSMLEIVHPGQVEKHYREMEEKSALNIQKHWRGYRERKNFHQQRQSLIEYKAAVTLQRAALKFLAKCRKKKKLFAPWRGLQELTDARRVELKKRVDDYVRRHLGSPMSDVVSRELHAQAQERLQHYFMGRALEERAQQHREALIAQISTNVEQLMKAPSLKEAEGKEPELFLSRSRPVAAKAKQAHLTTLKHIQAPWWKKLGEESGDEIDVPKDELSIELENLFIGGTKPP
notes: Full-length NPHP5 cDNA (598 amino acid residues) fused to a GAL4 domain; also called KIAA0036
Does B1 bind [1]?
Result: binds

Does B1 bind [2]?
Result: no binding

Does B1 bind [3]?
Result: no binding

Does B1 bind [4]?
Result: no binding
